Data as given in the nanobody polyreactivity screen of Harvey et al. (2022).

Test: yeast display, Sf9 membrane polyspecificity reagent, FACS + sequencing; frameworks hold sequencing errors
Summary of the method: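 Polyreactivity labels are assigned by the sorting gate from which each nanobody was recovered. The gates were low and high (top ~1%), set on anti-HA fluorescence for expression and streptavidin fluorescence for reagent binding. Before sorting, galactose-induced (36–48 hours) yeast display cells were stained for 1 hour at 4 °C with 10% biotinylated, detergent-solubilized Sf9 membrane reagent.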

Sequence	polyreactivity (PSR sort gate)
QVQLVESGGGLVQAGGRLRLSCAASGITFYSYAMGRYRQAPGKERELVAAISTTVGSTYYADYVKGRFTISRDNPNNTVYLQMNSLKPEDTAVYYCNSYSVYAWIEYNYWGQGTQVTVSS	low polyreactivity
QVQLVESGGGLVQAGGRLRLSCAASGITISGNAMGWYRQAPGKERELDAAISGRGGSTYYADSVKGRFTISRDNAKNTVYLQMNSLIPEDTAVFYCAARVPSPYVATYYYWGQGSQVTVSS	high polyreactivity
QVQLVESGGGLVQAGGRLRLSCAASGLIFDYYAMGWYRQAPGKERELVAAISYSGGRTYYADSVKCRFTISRDNAKNTVYLQMNSLKPEDTAVYYCNKVVLQPVIVDHDYWGQGTQVTVSS	low polyreactivity
QVQLVESGGGLVQAGGRLRLSCAASGLIFGANTMGWYSQAPGKERELVAAITSSGGSTYYADSVKGRFTISRDNAKNTVYLQMNSLKPEDTAVYFCNDRSWYPYDYWGQGTQVTVSS	low polyreactivity
QVQLVESGGGLVQAGGRLRLSCAASGLIFRTYTMVWYRQAPGKERELVATITRRGGTTYYADSVKGRFTISRDNAKNTVYLQMNSLKPEDTAVYYCAAKSAYHGLVGGYYYWGQGTQVTVSS	high polyreactivity
QVQLVESGGGLVQAGGRLRLSCAASGLIFSVYVMGGYRQAPGKERELVAGITTGGSTKYADSVKGRFTISRDNAKNTVYLEMNSLKPEDTAVYYCAVGKYNYRGSWDYYWGQGTQVTVSS	high polyreactivity
QVQLVESGGGLVQAGGRLRLSCAASGLTFAKYSMGWYRQAPGTERELVAAITASGASTYYADSVKGRFTISRDNAKNTVYLQMNSLKPEDTAVYYCAVRRYYNDYWGQGSQVTVSS	low polyreactivity
QVQLVESGGGLVQAGGRLRLSCAASGLTFGWYTMGWYRQAPGKERELVADITWSGGSTYYADSVKGRFTISRDNAKNTVYLQMNSLKPEDTAVYYCNKVWFYLEYGFSILYDYWGQGTQVTVSS	low polyreactivity
QVQLVESGGGLVQAGGRLRLSCAASGLTFLPNAMGWYRQAPGKERELVAAISWSDVRTYYADSVKGRFTISRDNAKNTVYLQMNSLKPEDTAVYYCAAEIYDLPEGDYWGQGTQVTVSS	high polyreactivity
QVQLVESGGGLVQAGGRLRLSCAASGLTFTYYAMGWYRQAPGKERELVATISWSGGTTYADSVKGRFTISRDNAKNTVYLQMNSLKPEDTAVYYCAADHPLYRRYDYWGQGTQVTVSS	high polyreactivity
QVQLVESGGGLVQAGGRLRLSCAASGRIFGINVMGWYRQAPGKERELVARITGRGGRTYYADSVKGRFTISRDNAKNTVYLQMNSLKPEDTAVYYCAADASYEAYDYWGQGTQVTVSS	high polyreactivity
QVQLVESGGGLVQAGGRLRLSCAASGRIFNIYAMGWYRQAPGKERELVAAISGSGGRTSYADSVKGRFTISRDNAKNTVYLQMNSLKPEDTAVYYCAADYSYYTSFRYDYWGQGTQVTVSS	low polyreactivity
QVQLVESGGGLVQAGGRLRLSCAASGRIFPRYVMGWYRQAHGKERELVAAITYRGGSTSYADSVKGRFTISRDNAKNTVYLQMNSLKPEDTAVYYCNAYRRAGRTVGTTRRYYYLGQGTQVTVSS	high polyreactivity
QVQLVESGGGLVQAGGRLRLSCAASGRIFPVYTMGWYRQAPGKERELVAAISGNGASTYYADSVKGRFTISRDNAKNTVYLQMNSLKPEDTAVYYCAAYFYYWGSTFVRYEYWGQGTQVTVSS	high polyreactivity
QVQLVESGGGLVQAGGRLRLSCAASGRIFVYYAMGWYRQAPGKERELVAAINSSGGRTYYADSVKGRFTISRDNAKNTVYLQMNSLKPEDTAVYYCAARKYSYPVAAHYYWGQGTQVTVSS	high polyreactivity
QVQLVESGGGLVQAGGRLRLSCAASGRTFDRYAMGWYRQAPGKERELVAAITWSGGRTYYADSVKGRFTISRDNAKKTVYLQMNSLKPEDTAVYYCAADNSYRGYHSPYDYWGQGTQVTVSS	low polyreactivity
QVQLVESGGGLVQAGGRLRLSCAASGRTFFRYVMGWYRQAPGKERELVAAISRSGGSTYYADSVKGRFTISRDNAKNTVYLQMNSLKPEATAVFYCNTVARSTVVPTEFDYWGQGTQVTVSS	high polyreactivity
QVQLVESGGGLVQAGGRLRLSCAASGRTFPYYVMGWYRQAPGKERELVAVIRWRGGSTYYADSVKGRFTISRDNAKNTVYLQMNSLKPEDTAVYYCAARRHIVVATYDRRYDYWGQGTQVTVSS	low polyreactivity
QVQLVESGGGLVQAGGRLRLSCAASGRTFSKYPLGWYRQAPGKERELVAAITSGGGTYYADSVKGRFTFSRDNAKNPVYLQMHSRKPEDTAVYYCAVSGTTVSTYDYWGQCTQVTVSS	low polyreactivity
QVQLVESGGGLVQAGGRLRLSCAASGRTFVYNALGWYRQAPGKERELVAAISQSGGSTYYADSVKGRFTISRDNAKITVYFQMNSLKPEDTAVYYCADRYKTGSYVRYNFWGQGTQVTVSS	high polyreactivity
QVQLVESGGGLVQAGGRLRLSCAASGRTFYGYAMGWYRQAPGKEREMVAAITQRGVSTYADSVKGRFTISRDNAKNTVYLQMNSLKQEDTAVYYCAADQIERFRDQTWDFDYWGQGTQVTVSS	low polyreactivity
QVQLVESGGGLVQAGGRLRLSCAASGSFFGGSGMGWYRQAPGKERELVAAITSGSSTYYADSVNGRFTISRDNAKNTVYLQMNSLKPEDSAVYYCAARPYPHSAYEGDYWGRGTQVTVSS	low polyreactivity

Sequence	polyreactivity (PSR sort gate)
QVQLVESGGGLVQAGGRLRLSCAASGSIFAGYAMGWYRQAPGKERELVAAITSSCGSTYYADSVKGRFTISRDNAKNTVYLQMNSLNPEDTAVYYCAKDKLIFYRVGSDYWGQGTQVTVSS	low polyreactivity
QVQLVESGGGLVQAGGRLRLSCAASGSIFCVNAMGWSRQAPGKERELVATITGSSGITYYADSVKGRFTISRVNAKNTVYLQMNSVKPEDTAVYYCAAVLLKFAYNYNYWGQGTQVTVSS	low polyreactivity
QVQLVESGGGLVQAGGRLRLSCAASGSIFGANTMVWYRQAPGKERELVAAISSGGNTYYADSVKGRFTISRDNAKNTVYLQMNSLKPEDTAVYYCNAQTRYRYQYGYLGGTGYNYWGQGTQVTVSS	low polyreactivity
QVQLVESGGGLVQAGGRLRLSCAASGSIFGRYAMGRYRQAPGKERELVAAITWSATSTYYADYVKGRFTISRDNAKNTVYLQMNSLKPEDTAVYYCAVRTPRARYTYGSWGQGTQVTVSS	high polyreactivity
QVQLVESGGGLVQAGGRLRLSCAASGSIFLFYAMGWYRKAPVKERELVARITSSGGTTYYADSVKGRFTISRDNAKNTVYLQMNSLKPEDTAVYYCAASYFIYHYDFDYWGQGTQVTVSS	high polyreactivity
QVQLVESGGGLVQAGGRLRLSCAASGSIFNYYARGWYRQAPGKERELVAAIPTSGGNPYYADSVKGRFTISRDNAKNTVKLQMNSLKPEDTALYNCAADYWASGGEYDYWGQGTQVTVSS	low polyreactivity
QVQLVESGGGLVQAGGRLRLSCAASGSIFQKNAMGWYRQAPGKERELVAVITRGGTSTYYADSVKGRFTISRDNAKNTVYLQMNSLKTEDTAVYYCAAKADKRLDYWGQGTQVTVSS	low polyreactivity
QVQLVESGGGLVQAGGRLRLSCAASGSIFRYYDMGWYRQATGKEREFVAAISYRGGTTYYADSVKGRFTISRDNAKNTVYLQMNSLKPEDTAVYYCAKETYRSSSYDWYDYWGQGTQVTVSS	low polyreactivity
QVQLVESGGGLVQAGGRLRLSCAASGSIFSIYPMGWYRQAPGKERDFVASITVTDGSTYYADSVKGRFTISRDNAKNTVYLQMNSLKPEDTADYYCNADGWYALYEWLAVSGYYWGQGTQVTVSS	low polyreactivity
QVQLVESGGGLVQAGGRLRLSCAASGSIFSRNAMGRYRQATGKESELVAAISRGGSTNYADSVKGRFTISRDNAKNTVYLQMNSLKPEDTAVYYCANVGRRSWYRWLGPLWYGGMDYWGQGTQVTVSS	low polyreactivity
QVQLVESGGGLVQAGGRLRLSCAASGSIFTVYSMGWYRQAPGKERELVASIRFSSGRTYYADSVKGRFTISRDNAKNTVYLQMNSLKPEDTAVYYCAAETVSWYRYYYWGQGTQVTVSS	high polyreactivity
QVQLVESGGGLVQAGGRLRLSCAASGSIFYSNAMGWYRQAPGKEREFVAAISAGGGSTYYADSVKGRFTISRDNAKNTVYLQMNSMKPEDTAVYFCAAQPYKIIYPYDYWGQGTQVTVSS	low polyreactivity
QVQLVESGGGLVQAGGRLRLSCAASGSIILFKDMGWYGQAPGKERELVADITWSGGSTYYADSVKGRFTISCDNAKNTVYLQMHSLKPEDTAVDYCADDPDYYFTRGNYQWGYYWGQGTQVTVSS	low polyreactivity
QVQLVESGGGLVQAGGRLRLSCAASGSTFFAYAMGWYRQAPGKQRELVAAITGRGSTYYADSVKGRFTISRDNAKNTVYLQMNSLKAEDTAVYYCAAQRSRRYYRLDFWGQGTQVTVSS	high polyreactivity
QVQLVESGGGLVQAGGRLRLSCAASGSTFGTYAMGWYRHAPGKERELVAAITRSGGSTYYADSVKGRFTISRDNAKNTVYLQMNSLKPDDTAVFYCAAVSKGYYYWGQGTQVTVSS	high polyreactivity
QVQLVESGGGLVQAGGRLRLSCAASGSTFGYYAMGWYRQAPGKERELVAAITFSVGGTYYADSVKGRFTISRDNAKNTVYLQMNSLKPEDTAVYYCNVDYYVPPAGVTRTGDDVYWGKGTQVTVSS	low polyreactivity
QVQLVESGGGLVQAGGRLRLSCAASGSTFLQNAMGWYRQAPGKEREFVAAISRSGGSTYYADSVKGRFTISRDNAKNTVYLQMNSLKPEDTAVYYCARRYWPGSAYWIYDYWGQGTQVTVSS	high polyreactivity
QVQLVESGGGLVQAGGRLRLSCAASGSTFLVYAMGWYRQAPGKERELVAAIDSGVSTYYADSVKGLFTISRDNAKNTVYLQMNSLKPEDTAVYYCNGYDYWGQGTQVTVSS	low polyreactivity
QVQLVESGGGLVQAGGRLRLSCAASGSTFRSNVMGRYRQATGKERELVAAITSGSITNYADSVKGRFTISRDNAKNTVYLQMNSLKPEDTAVYYCAVETYVYGRMGYLGQGTQVTVSS	high polyreactivity
QVQLVESGGGLVQAGGRLRLSCAASGSTLEINGMGWYRQAPGKEREFVADISIGGDTNYADSVKGRFTISRDNAKNTEMNSLKPEDTAVYYCNTDYFGSLVVVIFDYWGQGTQVSVSS	low polyreactivity
QVQLVESGGGLVQAGGRLRLSCAASGSTLYAYGMGWYRQAPGKERELVAAIRTGGSTYYADSVKGRFTISRDNAKITVYLQMNSLKPEDTAVYYCAADHGYQYGYWGQGTQVTVSS	low polyreactivity
